From paper doi:10.1101/2020.09.01.277368 (bioRxiv, 2020) come the findings set out here.

This data set concerns the molecule itself. Kind of data set: AUC; sedimentation velocity (SV-AUC); MetA at 10, 20 and 30 µM in 20 mM Tris-Cl pH 7.5, 150 mM NaCl; 40,000 rpm; absorbance at 280 nm; SEDFIT continuous c(s) distribution; monomer, dimer and tetramer peaks, populations unchanged at the three concentrations.

Where “and” joins values, the source holds several entries; their conditions need not be identical. Equal entries are not always repeated.

The term stoichiometry N denotes a count of units in the complex or per binding partner.

B1: homoserine acetyl transferase MetA (Rv3341) of Mycobacterium tuberculosis, recombinant histidine-tagged (enzyme)
chain: MTISDVPTQTLPAEGEIGLIDVGSLQLESGAVIDDVCIAVQRWGKLSPARDNVVVVLHALTGDSHITGPAGPGHPTPGWWDGVAGPGAPIDTTRWCAVATNVLGGCRGSTGPSSLARDGKPWGSRFPLISIRDQVQADVAALAALGITEVAAVVGGSMGGARALEWVVGYPDRVRAGLLLAVGARATADQIGTQTTQIAAIKADPDWQSGDYHETGRAPDAGLRLARRFAHLTYRGEIELDTRFANHNQGNEDPTAGGRYAVQSYLEHQGDKLLSRFDAGSYVILTEALNSHDVGRGRGGVSAALRACPVPVVVGGITSDRLYPLRLQQELADLLPGCAGLRVVESVYGHDGFLVETEAVGELIRQTLGLADREGACRR
notes: also called HSAT; (His)6-Rv3341
With B1, the “stoichiometry N” value is 2 and 4.
